Values of other authors in publication PMC3210452.
Read-outs that look alike come from different tables or passages of the source.

Tests used:
[1] = molecular target: P-type voltage-gated calcium channel (UniProt P54282)
[2] = molecular target: Q-type voltage-gated calcium channel (UniProt O00555)
[3] = molecular target: P-type voltage-gated calcium channel (UniProt P54282); remark: listed apart in the source

Sequence of UniProt P54282 (P54282 whole entry): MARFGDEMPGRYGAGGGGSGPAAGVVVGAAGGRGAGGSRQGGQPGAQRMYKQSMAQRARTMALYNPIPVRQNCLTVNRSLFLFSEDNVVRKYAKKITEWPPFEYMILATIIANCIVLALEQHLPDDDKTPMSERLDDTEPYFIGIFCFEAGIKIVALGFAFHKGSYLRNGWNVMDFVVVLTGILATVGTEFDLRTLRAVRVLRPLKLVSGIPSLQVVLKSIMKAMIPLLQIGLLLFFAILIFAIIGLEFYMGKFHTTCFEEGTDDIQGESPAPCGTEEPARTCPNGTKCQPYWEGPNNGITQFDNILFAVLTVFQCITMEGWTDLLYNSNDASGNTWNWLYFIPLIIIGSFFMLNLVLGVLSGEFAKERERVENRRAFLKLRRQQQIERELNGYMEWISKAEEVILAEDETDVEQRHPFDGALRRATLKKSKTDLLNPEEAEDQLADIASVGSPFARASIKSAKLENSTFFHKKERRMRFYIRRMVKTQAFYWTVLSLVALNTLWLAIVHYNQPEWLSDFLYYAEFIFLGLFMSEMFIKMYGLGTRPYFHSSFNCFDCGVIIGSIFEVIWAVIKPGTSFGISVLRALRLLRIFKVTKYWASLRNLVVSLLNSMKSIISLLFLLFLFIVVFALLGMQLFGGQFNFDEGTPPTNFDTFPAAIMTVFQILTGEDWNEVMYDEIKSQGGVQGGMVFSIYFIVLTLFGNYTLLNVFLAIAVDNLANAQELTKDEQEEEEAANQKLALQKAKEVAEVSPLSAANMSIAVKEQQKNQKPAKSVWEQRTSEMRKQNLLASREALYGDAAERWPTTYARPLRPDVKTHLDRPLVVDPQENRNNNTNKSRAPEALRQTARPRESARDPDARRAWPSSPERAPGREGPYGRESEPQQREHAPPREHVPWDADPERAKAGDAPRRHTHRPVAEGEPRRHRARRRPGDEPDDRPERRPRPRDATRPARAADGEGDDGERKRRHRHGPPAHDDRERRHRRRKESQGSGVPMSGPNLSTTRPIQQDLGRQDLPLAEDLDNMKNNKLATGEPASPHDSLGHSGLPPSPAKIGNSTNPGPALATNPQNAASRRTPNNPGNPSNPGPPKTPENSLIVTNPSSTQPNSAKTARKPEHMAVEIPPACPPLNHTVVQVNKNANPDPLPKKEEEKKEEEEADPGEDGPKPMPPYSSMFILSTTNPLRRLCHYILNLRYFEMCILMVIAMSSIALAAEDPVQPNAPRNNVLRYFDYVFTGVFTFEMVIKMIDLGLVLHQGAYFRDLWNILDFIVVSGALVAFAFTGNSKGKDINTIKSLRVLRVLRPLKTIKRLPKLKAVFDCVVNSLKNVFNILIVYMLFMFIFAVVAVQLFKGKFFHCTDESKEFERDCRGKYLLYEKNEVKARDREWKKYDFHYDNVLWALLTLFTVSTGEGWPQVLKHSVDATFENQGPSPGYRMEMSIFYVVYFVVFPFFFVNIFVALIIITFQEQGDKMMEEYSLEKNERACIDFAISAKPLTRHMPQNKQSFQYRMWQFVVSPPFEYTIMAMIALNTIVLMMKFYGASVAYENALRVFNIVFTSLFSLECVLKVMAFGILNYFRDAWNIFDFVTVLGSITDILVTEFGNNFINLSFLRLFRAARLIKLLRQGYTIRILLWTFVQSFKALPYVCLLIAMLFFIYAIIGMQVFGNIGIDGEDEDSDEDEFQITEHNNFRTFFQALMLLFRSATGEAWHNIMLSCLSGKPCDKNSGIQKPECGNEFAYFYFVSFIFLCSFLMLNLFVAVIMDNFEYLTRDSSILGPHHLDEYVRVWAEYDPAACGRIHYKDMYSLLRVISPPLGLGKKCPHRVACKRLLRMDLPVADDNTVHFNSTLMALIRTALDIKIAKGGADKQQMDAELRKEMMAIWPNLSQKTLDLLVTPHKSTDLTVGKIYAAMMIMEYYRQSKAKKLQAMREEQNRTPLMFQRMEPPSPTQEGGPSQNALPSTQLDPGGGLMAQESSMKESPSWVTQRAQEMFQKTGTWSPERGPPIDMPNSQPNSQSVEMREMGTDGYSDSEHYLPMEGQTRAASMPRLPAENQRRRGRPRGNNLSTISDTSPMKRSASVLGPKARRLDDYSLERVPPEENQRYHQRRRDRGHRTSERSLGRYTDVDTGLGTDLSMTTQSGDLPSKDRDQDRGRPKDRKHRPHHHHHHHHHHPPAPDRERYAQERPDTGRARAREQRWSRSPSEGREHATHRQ
Sequence of UniProt O00555 (O00555 whole entry): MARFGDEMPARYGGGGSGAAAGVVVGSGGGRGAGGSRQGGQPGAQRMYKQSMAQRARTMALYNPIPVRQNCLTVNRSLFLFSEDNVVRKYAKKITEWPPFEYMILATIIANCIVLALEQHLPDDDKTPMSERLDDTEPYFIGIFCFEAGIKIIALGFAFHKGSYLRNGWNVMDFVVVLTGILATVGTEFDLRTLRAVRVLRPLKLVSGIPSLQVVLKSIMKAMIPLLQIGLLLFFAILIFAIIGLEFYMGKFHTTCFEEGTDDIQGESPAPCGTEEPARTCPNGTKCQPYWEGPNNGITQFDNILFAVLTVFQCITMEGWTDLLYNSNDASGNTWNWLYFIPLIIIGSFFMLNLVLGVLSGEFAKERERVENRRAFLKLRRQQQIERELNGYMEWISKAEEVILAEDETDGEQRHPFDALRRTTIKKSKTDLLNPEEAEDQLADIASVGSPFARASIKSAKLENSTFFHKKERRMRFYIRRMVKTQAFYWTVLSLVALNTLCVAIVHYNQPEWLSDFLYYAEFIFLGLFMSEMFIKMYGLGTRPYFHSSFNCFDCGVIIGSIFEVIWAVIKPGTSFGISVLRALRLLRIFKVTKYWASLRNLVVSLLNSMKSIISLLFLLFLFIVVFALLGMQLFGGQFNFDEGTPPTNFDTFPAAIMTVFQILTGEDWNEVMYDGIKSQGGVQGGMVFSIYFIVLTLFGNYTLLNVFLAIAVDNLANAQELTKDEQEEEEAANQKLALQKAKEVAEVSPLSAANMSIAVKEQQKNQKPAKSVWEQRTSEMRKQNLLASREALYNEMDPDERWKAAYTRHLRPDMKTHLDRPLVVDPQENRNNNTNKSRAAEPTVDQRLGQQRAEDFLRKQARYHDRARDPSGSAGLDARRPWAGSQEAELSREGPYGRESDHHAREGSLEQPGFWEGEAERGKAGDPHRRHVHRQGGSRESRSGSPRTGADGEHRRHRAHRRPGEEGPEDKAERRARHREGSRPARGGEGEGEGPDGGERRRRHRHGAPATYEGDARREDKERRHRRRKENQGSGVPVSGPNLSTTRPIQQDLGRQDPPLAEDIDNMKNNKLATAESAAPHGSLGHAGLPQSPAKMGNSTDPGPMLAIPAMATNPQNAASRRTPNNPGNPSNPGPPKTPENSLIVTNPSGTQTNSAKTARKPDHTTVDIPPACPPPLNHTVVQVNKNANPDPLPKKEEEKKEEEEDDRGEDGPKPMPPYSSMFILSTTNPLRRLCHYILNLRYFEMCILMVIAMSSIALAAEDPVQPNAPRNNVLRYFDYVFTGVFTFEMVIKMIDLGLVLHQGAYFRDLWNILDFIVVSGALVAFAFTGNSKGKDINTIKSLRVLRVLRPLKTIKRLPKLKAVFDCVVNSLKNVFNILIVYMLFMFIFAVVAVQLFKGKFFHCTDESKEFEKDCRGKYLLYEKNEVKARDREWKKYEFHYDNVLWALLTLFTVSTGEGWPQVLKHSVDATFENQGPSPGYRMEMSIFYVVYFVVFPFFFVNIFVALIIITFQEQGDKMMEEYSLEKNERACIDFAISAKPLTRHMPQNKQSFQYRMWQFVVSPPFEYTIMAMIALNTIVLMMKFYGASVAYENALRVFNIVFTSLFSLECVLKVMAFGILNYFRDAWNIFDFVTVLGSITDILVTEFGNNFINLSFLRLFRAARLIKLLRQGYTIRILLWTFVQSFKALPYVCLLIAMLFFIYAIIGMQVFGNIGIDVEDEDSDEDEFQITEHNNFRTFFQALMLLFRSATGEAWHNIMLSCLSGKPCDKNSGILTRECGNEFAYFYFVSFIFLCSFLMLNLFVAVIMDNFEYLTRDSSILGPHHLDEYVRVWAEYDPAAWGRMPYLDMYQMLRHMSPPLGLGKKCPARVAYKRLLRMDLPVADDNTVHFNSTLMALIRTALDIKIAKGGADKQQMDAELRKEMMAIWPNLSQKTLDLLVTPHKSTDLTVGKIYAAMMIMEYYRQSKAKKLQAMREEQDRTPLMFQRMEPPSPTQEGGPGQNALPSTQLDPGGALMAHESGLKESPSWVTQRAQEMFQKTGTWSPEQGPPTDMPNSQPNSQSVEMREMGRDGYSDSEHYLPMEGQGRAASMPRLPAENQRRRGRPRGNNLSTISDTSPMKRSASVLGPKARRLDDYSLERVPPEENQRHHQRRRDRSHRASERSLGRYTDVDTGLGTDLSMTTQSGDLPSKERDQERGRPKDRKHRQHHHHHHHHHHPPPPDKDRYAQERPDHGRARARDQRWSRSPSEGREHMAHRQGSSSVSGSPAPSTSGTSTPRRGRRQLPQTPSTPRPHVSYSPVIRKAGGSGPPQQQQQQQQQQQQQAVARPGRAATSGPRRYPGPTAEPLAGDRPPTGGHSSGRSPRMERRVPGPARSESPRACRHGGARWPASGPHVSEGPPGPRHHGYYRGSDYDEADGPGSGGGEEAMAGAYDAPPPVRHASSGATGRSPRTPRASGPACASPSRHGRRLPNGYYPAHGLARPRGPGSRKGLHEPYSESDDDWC

Row | Substance | Kd [1] | Kd [2] | Kd [3]
1 | ω-agatoxin IVB (from UniProt P37045) | 3 nM |  | 
2 | ω-agatoxin IVA (from UniProt P30288) |  | 100 nM | 2 nM
